Test results: the supplement of paper PMC7125110
± gives the standard error. Fewer inactive variants are shown than the library holds.

B1: glmS ribozyme (parent)
chain: AUAAAAGCGCCAGAACUACAGAAAUGUAGUUGACGAGGAGGAGGUUUAUCGAAUUUUCGGCGGAUGCCUCCAAA

What was measured:
Conditions in all cases: with glucosamine-6-phosphate
glucosamine-6-phosphate [1] = variants of: B1; assay: self-cleavage kobs at 40 uM GlcN6P; higher = faster cleavage; RNA array
Procedure, shortened: (§1)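 Ribozyme variants carrying barcodes were transcribed in situ on sequenced MiSeq chips by E. coli RNA polymerase and tracked at 37 °C with a hybridised Cy3 probe. They were exposed to 40 μM to 10 mM glucosamine-6-phosphate in HEPES/KCl/Mg(OAc)2 buffer. kobs came from exponential decay fits of normalised per-tile medians, and kcat and KM from weighted Michaelis–Menten fits.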

glucosamine-6-phosphate [2] = variants of: B1; assay: self-cleavage kobs at 10000 uM GlcN6P; higher = faster cleavage; RNA array
Procedure, shortened: as §1

glucosamine-6-phosphate [3] = variants of: B1; assay: self-cleavage kobs at 640 uM GlcN6P; higher = faster cleavage; RNA array
Procedure, shortened: as §1

glucosamine-6-phosphate [4] = variants of: B1; assay: self-cleavage kobs at 2500 uM GlcN6P; higher = faster cleavage; RNA array
Procedure, shortened: as §1

glucosamine-6-phosphate [5] = variants of: B1; assay: self-cleavage kobs at 160 uM GlcN6P; higher = faster cleavage; RNA array
Procedure, shortened: as §1

| Variant | self-cleavage kobs at 40 uM GlcN6P (glucosamine-6-phosphate [1]) [s⁻¹] | self-cleavage kobs at 10000 uM GlcN6P (glucosamine-6-phosphate [2]) [s⁻¹] | self-cleavage kobs at 640 uM GlcN6P (glucosamine-6-phosphate [3]) [s⁻¹] | self-cleavage kobs at 2500 uM GlcN6P (glucosamine-6-phosphate [4]) [s⁻¹] | self-cleavage kobs at 160 uM GlcN6P (glucosamine-6-phosphate [5]) [s⁻¹] |
| --- | --- | --- | --- | --- | --- |
| A33G C58A | < 1e-05 | < 1e-05 |  |  |  |
| A15C G37A U57G C67G | < 1e-05 | < 1e-05 |  |  |  |
| A39G G40A | 0.000261 ± 8e-05 |  | 0.00167 ± 0.00076 | 0.00889 ± 0.0023 |  |
| U49A C58A | < 1e-05 |  | < 1e-05 |  | < 1e-05 |
| C8A C68A | < 1e-05 |  | < 1e-05 | < 1e-05 | < 1e-05 |
| C10G G32C U57A | < 1e-05 |  |  |  |  |
| G9U A14G G59C C68U | < 1e-05 | < 1e-05 |  |  |  |
| G41C C50U | < 1e-05 | < 1e-05 | < 1e-05 | < 1e-05 |  |
| G40A C67A | < 1e-05 |  | 0.000183 ± 5.8e-05 | 0.000262 ± 0.00011 |  |
| C8G U31A U56A C70A | < 1e-05 | < 1e-05 |  |  |  |
| G29C U31A U46A A53C C71U | < 1e-05 |  |  |  |  |
| A64G C68G C71A | < 1e-05 | < 1e-05 | < 1e-05 |  | < 1e-05 |
| A33C G59C | < 1e-05 | < 1e-05 | < 1e-05 | < 1e-05 | < 1e-05 |
| C8A A14G C58U | < 1e-05 | < 1e-05 |  |  |  |
| G9A A14C G44U U47C | < 1e-05 |  |  |  |  |
| G62A C67A | < 1e-05 | < 1e-05 |  |  |  |
| C10G A52U G59C | < 1e-05 |  | < 1e-05 | < 1e-05 | < 1e-05 |
| G37A A42C U47G | < 1e-05 |  | < 1e-05 |  | < 1e-05 |
| G51A A64C | < 1e-05 | < 1e-05 |  | < 1e-05 | < 1e-05 |
| A33C U55C U57C | < 1e-05 | < 1e-05 |  |  |  |
| A12C A42U C58U | < 1e-05 |  |  |  |  |
| G44A G63A | < 1e-05 |  | < 1e-05 | < 1e-05 | < 1e-05 |
| A6G C16U G32C G41U C68U | < 1e-05 | < 1e-05 | < 1e-05 | < 1e-05 |  |

| Variant | self-cleavage kobs at 40 uM GlcN6P (glucosamine-6-phosphate [1]) [s⁻¹] | self-cleavage kobs at 10000 uM GlcN6P (glucosamine-6-phosphate [2]) [s⁻¹] | self-cleavage kobs at 640 uM GlcN6P (glucosamine-6-phosphate [3]) [s⁻¹] | self-cleavage kobs at 2500 uM GlcN6P (glucosamine-6-phosphate [4]) [s⁻¹] | self-cleavage kobs at 160 uM GlcN6P (glucosamine-6-phosphate [5]) [s⁻¹] |
| --- | --- | --- | --- | --- | --- |
| C10G A52G | < 1e-05 | < 1e-05 |  | < 1e-05 |  |
| U30A U56C A64G | < 1e-05 | 2.96e-05 ± 1.4e-05 |  |  |  |
| A12G C58U C61U | < 1e-05 |  |  |  |  |
| G9U C10G A48C A52G | < 1e-05 |  |  |  |  |
| A15G G66A | 0.000603 ± 8.4e-05 | 0.0412 ± 0.011 | 0.00506 ± 0.0011 | 0.00542 ± 0.0014 | 0.00153 ± 0.00044 |
| G7U C11G | < 1e-05 | < 1e-05 | < 1e-05 | < 1e-05 | < 1e-05 |
| C68U U69G C71A | < 1e-05 |  |  |  |  |
| C10G G32A | < 1e-05 | < 1e-05 |  |  |  |
| G21U U46A | 6.35e-05 ± 2.2e-05 | 0.00269 ± 0.00086 |  | 0.00271 ± 0.0012 |  |
| G7U A12C G29C | < 1e-05 |  | < 1e-05 | < 1e-05 | < 1e-05 |
| G41U G62A G63U | < 1e-05 | < 1e-05 |  |  |  |
| A12G G32A | < 1e-05 | 5.21e-05 ± 7.4e-06 |  |  | < 1e-05 |
| A33G C34A | < 1e-05 | < 1e-05 |  |  |  |
| A52U G60A | < 1e-05 | < 1e-05 | < 1e-05 |  | < 1e-05 |
| A36G U55C C67U | < 1e-05 |  | < 1e-05 | < 1e-05 |  |
| G7C G40C U54G G62A | < 1e-05 |  |  |  |  |
| G7U G37A C58U U69G | 7.21e-05 ± 2.9e-05 |  |  |  |  |
| G7U C19A A36G A39C | < 1e-05 | < 1e-05 |  |  |  |
| C11A A14G A52C G63A | < 1e-05 |  |  |  |  |
| G9A G37A | < 1e-05 | < 1e-05 | < 1e-05 | < 1e-05 | < 1e-05 |
| A33U G40C C71A | < 1e-05 |  |  |  |  |
| A15G A48U U57C | < 1e-05 | < 1e-05 |  | < 1e-05 | < 1e-05 |
| A33G G51U | < 1e-05 | < 1e-05 | < 1e-05 |  |  |

| Variant | self-cleavage kobs at 40 uM GlcN6P (glucosamine-6-phosphate [1]) [s⁻¹] | self-cleavage kobs at 10000 uM GlcN6P (glucosamine-6-phosphate [2]) [s⁻¹] | self-cleavage kobs at 640 uM GlcN6P (glucosamine-6-phosphate [3]) [s⁻¹] | self-cleavage kobs at 2500 uM GlcN6P (glucosamine-6-phosphate [4]) [s⁻¹] | self-cleavage kobs at 160 uM GlcN6P (glucosamine-6-phosphate [5]) [s⁻¹] |
| --- | --- | --- | --- | --- | --- |
| C16U U49C | < 1e-05 |  | < 1e-05 | < 1e-05 | < 1e-05 |
| A36C U49G A53G | 4.33e-05 ± 1.4e-05 | 0.00107 ± 0.00018 |  |  |  |
| G9U G41U A42G A64U C71U | < 1e-05 | < 1e-05 |  |  |  |
| C61G A64G | < 1e-05 | < 1e-05 | < 1e-05 | < 1e-05 |  |
| G29C U45C G62A | < 1e-05 |  |  | < 1e-05 |  |
| A42G U45C | 5.93e-05 ± 2.9e-05 |  |  |  |  |
| G32C C34U A64G C68G | < 1e-05 | < 1e-05 |  |  |  |
| U30A U55A C61A | < 1e-05 |  |  | < 1e-05 |  |
| C70G | 0.000246 ± 5.2e-05 | 0.00395 ± 0.00093 | 0.0014 ± 0.00021 | 0.000576 ± 4.7e-05 | 0.000401 ± 9.4e-05 |
| G13U G59C | < 1e-05 | < 1e-05 | < 1e-05 |  |  |
| C8G U54G | < 1e-05 |  |  |  |  |
| G41U G43U | < 1e-05 | < 1e-05 | < 1e-05 | < 1e-05 |  |
| G40U G60C | < 1e-05 | < 1e-05 |  | < 1e-05 | < 1e-05 |
| A6C A52C | < 1e-05 | < 1e-05 | < 1e-05 | < 1e-05 | < 1e-05 |
| C8U G59U | < 1e-05 | < 1e-05 | < 1e-05 | < 1e-05 | < 1e-05 |
| C34U U54A | < 1e-05 | < 1e-05 | < 1e-05 |  |  |
| A36G A48U | < 1e-05 | < 1e-05 | < 1e-05 | < 1e-05 | < 1e-05 |
| U30C U69G | 3.65e-05 ± 1.2e-05 | 2.39e-05 ± 1.1e-05 | 0.000119 ± 2.8e-05 | 5.46e-05 ± 1.1e-05 | 7.31e-05 ± 1.5e-05 |
| A12U G40U G41C | < 1e-05 |  |  |  |  |
| C11U G41C U45A C71G | < 1e-05 |  |  | < 1e-05 | < 1e-05 |
| A39G A53C | 0.000254 ± 5.4e-05 | 0.0216 ± 0.0083 | 0.00303 ± 0.00075 | 0.0068 ± 0.0017 | 0.000658 ± 0.00016 |
| A15C G41A C70U | 0.000261 ± 6.2e-05 | 0.0111 ± 0.0023 |  |  |  |
| A14C G40U U46C C68U | < 1e-05 |  |  |  |  |

| Variant | self-cleavage kobs at 40 uM GlcN6P (glucosamine-6-phosphate [1]) [s⁻¹] | self-cleavage kobs at 10000 uM GlcN6P (glucosamine-6-phosphate [2]) [s⁻¹] | self-cleavage kobs at 640 uM GlcN6P (glucosamine-6-phosphate [3]) [s⁻¹] | self-cleavage kobs at 2500 uM GlcN6P (glucosamine-6-phosphate [4]) [s⁻¹] | self-cleavage kobs at 160 uM GlcN6P (glucosamine-6-phosphate [5]) [s⁻¹] |
| --- | --- | --- | --- | --- | --- |
| A12C C58U G63U | < 1e-05 | < 1e-05 |  |  |  |
| C11U G29A G32U C50G | 7.73e-05 ± 3.1e-05 | 7.84e-05 ± 2.3e-05 |  |  |  |
| G32U A36G G59A | < 1e-05 | < 1e-05 |  | < 1e-05 |  |
| G7A G51A C67A | < 1e-05 | < 1e-05 |  |  |  |
| C8G G63C | < 1e-05 |  | < 1e-05 | < 1e-05 | < 1e-05 |
| A48C C50A | < 1e-05 | < 1e-05 | < 1e-05 |  | < 1e-05 |
| C8G G9U | < 1e-05 |  | < 1e-05 | < 1e-05 |  |
| C10A C11G | < 1e-05 |  | < 1e-05 |  | < 1e-05 |
| G29U U30G C34U | < 1e-05 | < 1e-05 |  |  |  |
| A39U U55A U56C | 2.36e-05 ± 8.3e-06 | 0.00213 ± 0.00023 |  |  |  |
| A12U U45C | 0.000226 ± 3.6e-05 | 0.00628 ± 0.001 |  | 0.00428 ± 0.0016 |  |
| C8G G43C | < 1e-05 | < 1e-05 | < 1e-05 | < 1e-05 | < 1e-05 |
| G32U G43U G44U G60A | < 1e-05 |  | < 1e-05 | < 1e-05 |  |
| G9C G29U | < 1e-05 | < 1e-05 | < 1e-05 |  | < 1e-05 |
| C10U C11U U56G G62U | < 1e-05 | < 1e-05 |  |  |  |
| G7U C8A | < 1e-05 |  |  | < 1e-05 | < 1e-05 |
| G44A A52G | < 1e-05 |  |  |  | < 1e-05 |
| A15U A42C C68G | < 1e-05 |  |  |  |  |
| C8A G32U | < 1e-05 | < 1e-05 | < 1e-05 |  | < 1e-05 |
| G35C A48C | < 1e-05 | < 1e-05 | < 1e-05 | < 1e-05 | < 1e-05 |
| G32C G44C | < 1e-05 | < 1e-05 |  | < 1e-05 | < 1e-05 |
